Measured values: patent CN111732655A (INST MILITARY MEDICINE ACADEMY MILITARY SCIENCES PLA, dated 2020)
Several values for one entry are separate records, joined by “and”; a condition that tells them apart may be missing. Identical values can stand only once.

What was measured:
[1] = molecular target: 全长SARS-CoV-2 S蛋白 (GenBank ID: QHD43416.1)，展示于HIV假病毒 (SARS-CoV-2, UniProt P0DTC2 14-1273); experiment: cell-based or functional assay
SARS-CoV-2真病毒的S蛋白 = SARS-CoV-2真病毒的S蛋白 (SARS-CoV-2, UniProt P0DTC2 14-1273); experiment: cell-based or functional assay

B1: 单克隆抗体4B7 (抗SARS-CoV-2全人源单克隆抗体) (antibody, V domains shown)
VH: EVQLVESGGGLVQPGGSLRLSCAASGFPFSSYAMSWVRQAPGKGLEWVSAITGSGGSTYYADSVKGRFTISRDNSKNTLYLHMNSLRAEDTAVYYCAKDDYGDYVLGAFDIWGQGTTVTVSS
VL: QSALTQPASVSGSPGQSITISCTGTSSDVGTYKFVSWYQQHPGKAPKLMIYEGSKRPSGVSNRFSGSKSGNTASLTISGLQAEDEADYYCCSYAGSSTLVFGGGTKLTVL
[1]
  假病毒模型上EC50 (luciferase, ACE2-293T细胞): 0.052 ug/ml and 0.35 nM
SARS-CoV-2真病毒的S蛋白
  病毒感染的细胞模型上EC50 (Vero E6细胞, 结晶紫染色细胞活率): 0.38 ug/ml and 2.5 nM
